Test results taken from the supplement of paper PMC12042874.
± gives the uncertainty stated by the source.

Assay: amyloid nucleation score (Sup35N fusion, yeast selection) (log enrichment); library NNK3; higher = more nucleation; inactive = no reads after selection
Summary of the method: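 Three technical output replicates were used for random libraries. Psi-negative yeast expressing peptides of 20 random codons fused to Sup35N were induced with 100 μM copper sulfate for 24 hours and grown 7 days at 30°C on medium lacking adenine and uracil, and input and output plasmid inserts were Illumina-sequenced, excluding sequences with under 100 input reads. The nucleation score is the DiMSum log enrichment of output over input reads, centred on the mode score of non-aggregating sequences.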

Substance | amyloid nucleation score
KYYINVVNRRYLNYFGTWLF | 0.617 ± 0.12
FGFRCWLFWS | inactive
VGQWYGFMFWLLLLIIQS | inactive
ERRNRMFSWCWCSSSLLDAE | -0.08 ± 1
RHGEIYAHYKMFVCRLDEVR | inactive
LFMLIFGCVHARNYFKPKKV | inactive
YMRDCYSNSGWNIYRSKRLS | inactive
IFVVSNFISSSMNYRSYCYL | inactive
RPVKCSLYMTGQLQRLDGVN | 0.915 ± 0.14
VQAAKLVYHYQGSCLNRLRE | inactive
ILVIYCRVMKCFKCTRMRLC | inactive
VFVSLISSMTIFTCFVPECE | 3.28 ± 0.069
RVDRLALLCSTSGINSDFGR | inactive
VPVVYGSCCKHRGICMYVL | inactive
NVNLVSIVVVIMDEKDKVKE | 2.84 ± 0.07
TVLGELKVLFRYWFHIIWYF | inactive
DVLHLRCREVRRDVGYVTEF | inactive
FSYSFVTRDMATYGRTLVKS | inactive
NGTNPSYNKNCFSVFVESFN | inactive
DSDVWANAGHRLSLKMI | inactive
RFGVSKLARAS | inactive
GSYSRTLTYPHGENHENRKV | inactive
RYCIVLTDNVNTLHNLIIMV | inactive
PRWETSYLIL | inactive

Substance | amyloid nucleation score
CIFCRFFKVLVGHSYL | inactive
ESLIGSQGQRSNYNIMGNGW | inactive
SCQSGMSLCLSDHRLA | inactive
TKVFS | inactive
SGRSRWNAH | inactive
NAVLEFTPMFMFRTLSGRRV | inactive
MIFNHMNKL | inactive
GAHANM | inactive
SNHSRYYRNHDVFWYNIEVG | inactive
ANMKINVVLLNDCGWGR | 1.5 ± 0.12
VVNRHGYLAMLK | inactive
LLAWRHEMLMFVPDNLSYGG | inactive
IHKCYT | inactive
TWSRRGSGAPACVVVTWVPA | inactive
EDLVLRIDSTAACAELEKWL | inactive
TCSSACFVENRDTNHNGHGG | inactive
GTFVFTYMWFNIYRQNDFRN | inactive
MLWYLESWLTLHGTVECNVW | inactive
MQICSCYRFSD | 2.45 ± 0.071
RDLMEGRTTLWMNSGTAIWA | inactive
RVLATFCG | inactive
LMDFLKYAMFRGTMVCW | inactive
RVLRLLRVDAGHNLI | -0.029 ± 0.81
ARLFKGYSVVLCLCVSHR | inactive

Substance | amyloid nucleation score
HTILSTTTYMKMSQYSLW | inactive
VFQHGWGEVLRSRQGLLGSR | inactive
LGRLVG | inactive
SSFDSAIEA | inactive
GFFLLNSYSNCMFCKLHTGT | 1.97 ± 0.082
SRLCARMSSGKTIGYCNLFL | inactive
PGREIVVPHFR | inactive
DYTRKVHTIEGSSYYWLNFS | 1.36 ± 0.078
IEVLKNLRMVTGLVTL | inactive
HYYVDNPD | inactive
IVPSNSARLLSVKALDLPIS | inactive
LSGLFARRNQWWKYGLRRN | inactive
CHPGASSTGSKLTSRNCL | inactive
KFYAYSEDMVSQYI | inactive
HWFRTGDMGVDFTVEACDWL | inactive
GQSVMQSAMGSISKFE | inactive
CHNKKWVDFNVCFYNMLSFY | inactive
SKGICNFMCVL | 3.37 ± 0.077
CIICFGPRNFESRRKQPDWR | inactive
LNIRGSFCFYGSWIVADFHM | 0.336 ± 0.38
IIGTLSRMLDIGIIFVTT | -0.154 ± 0.88
NYLVVLMGSTCMKVRPLGVS | inactive
MVCEKERTWVTSRHWLERYR | -0.203 ± 1.3
HRLVFCQLTR | inactive

Substance | amyloid nucleation score
FMYKLSLLVCDKWLIVILPF | inactive
TWGKRFYSGIMVQCIREEWA | -0.741 ± 1.7
STWTWMPHKERHITLSKEFW | inactive
SDRSA | inactive
GGPSYSLSLWLSKVSCLQGG | 0.63 ± 0.34
TCVNLIMKIECFLYYGFLCP | inactive
HFNPPYRMFPHYVLLMNMYL | inactive
TKLWFCNFCYSLDAGIGKCV | 2.37 ± 0.077
FSDNSSRSGSNSEWYGS | inactive
MSAGCLLNL | inactive
LVYNATYCSSMHHSGS | inactive
YSKYSYSCVDGMIW | inactive
TVLYFA | inactive
NPFMW | inactive
RKMDLVDKSMSTIGYLAHHG | -0.63 ± 0.82
YYFCMLS | 2.55 ± 0.072
SYTIVERAIRWYPPT | 0.966 ± 0.11
ICYTLVTN | inactive
FGSYFSLKVFYNYF | 2.38 ± 0.055
YCYRYGWYHMNEDRIWDVRL | inactive
HRVRYVGPENSQNLCIRDYY | inactive
CCTIIRAYVVRELAHINNSW | inactive
WKTRHRVEVWASFLLSYQTG | -0.551 ± 0.62
GQDWIAV | inactive

Substance | amyloid nucleation score
PFIGVSMLSMG | -0.47 ± 0.87
LYPMGFQ | inactive
HTDWICYRRWYCIASRAMYQ | inactive
PNNSIHQIICYIWNEYTWSC | 2.55 ± 0.059
LSQVFLVMFKF | inactive
TRFLATECITSDEVVYWVTM | inactive
GYAADMIFYQGHHMKISMFR | 1.08 ± 0.15
NTYLVWIPRSFGQGKSNCLK | inactive
YIEWLDFR | inactive
SRNILRLKLIRLCSRKGIWW | inactive
LLVSFLVVLSWAVRFSRMGD | inactive
GMVNDYVVTVNFPCFWLG | 2.19 ± 0.079
FLMCWVLIVV | inactive
RYWHEASVVGFIWGKWVDVS | inactive
DQRLFFGHGGFDAVSW | inactive
FACAFKSSCLNHLCSAVW | 0.757 ± 0.17
SSMICVQFGM | inactive
KSLSGVIREENRDARGFWRS | inactive
ACANYCGSFSTTTAEYDVPS | inactive
RSMSTGNH | inactive
VLADYGTM | inactive
SRTGVC | -0.227 ± 1.5
VMLFY | 0.845 ± 0.14
